Data from patent US20200317768A1.

How the values were obtained:
[1] = molecular target: human FcγRIIaR extracellular domain, C-terminal His-tag (human) (UniProt P12318); assay: SPR 25C; FcgR bound per captured antibody, relative to parent B3
[2] = molecular target: human FcγRIIIaV extracellular domain, C-terminal His-tag (human) (UniProt P08637); assay: as above

Chain of human FcγRIIaR extracellular domain, C-terminal His-tag (human) (P12318 34-217 H167R): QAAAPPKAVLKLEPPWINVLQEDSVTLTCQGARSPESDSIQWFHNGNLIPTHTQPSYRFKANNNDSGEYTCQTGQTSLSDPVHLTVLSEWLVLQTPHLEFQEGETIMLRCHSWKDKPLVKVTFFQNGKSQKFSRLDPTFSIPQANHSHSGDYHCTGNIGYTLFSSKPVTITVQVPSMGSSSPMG

## GpH7-B3 variant V266F/GpL16-k0 (antibody)
[1]
  Binding to human FcgRs (parent B3 = 100) (parent B3 = 100): 8
[2]
  Binding to human FcgRs (parent B3 = 100) (parent B3 = 100): 2
